# Experiments:
# PeWRKY1 [1] = molecular target: T1, PeWRKY1 (Populus euphratica, UniProt A0AAJ6U0E7 1-595); test: EMSA
# PeWRKY1 [2] = molecular target: T1, PeWRKY1; test: competition
# PeWRKY1 [3] = molecular target: T1, PeWRKY1; test: competition; remark: listed apart in the source
binder,measurement,setting,value
PeHA1 promoter W-box probe (dsDNA) DNA 1: CCCTATCGGGCAAGATTTGACCCGCCCGAGTTGATCCCTC DNA 2: GAGGGATCAACTCGGGCGGGTCAAATCTTGCCCGATAGGG,binding result,PeWRKY1 [1],binds
PeHA1 promoter W-box unlabeled competitor (dsDNA) DNA 1: CCCTATCGGGCAAGATTTGACCCGCCCGAGTTGATCCCTC DNA 2: GAGGGATCAACTCGGGCGGGTCAAATCTTGCCCGATAGGG,binding result,PeWRKY1 [2],binds
W-box mutant probe (TTGACC to TTAGCC) (dsDNA) DNA 1: CCCTATCGGGCAAGATTTAGCCCGCCCGAGTTGATCCCTC DNA 2: GAGGGATCAACTCGGGCGGGCTAAATCTTGCCCGATAGGG,binding result,PeWRKY1 [3],no binding

# Source: PMC7031066
